Test results reported in patent US20100196934A1.

What was measured:
[1] = biological target: Bovine recombinant PrP (bovine); test: direct ELISA, coated denatured rPrP 1 ng/assay
[2] = biological target: Deer recombinant PrP (deer); test: direct ELISA, coated denatured rPrP 1 ng/assay
[3] = biological target: Human recombinant PrP (human); test: direct ELISA, coated denatured rPrP 1 ng/assay
[4] = biological target: Mouse recombinant PrP (mouse); test: direct ELISA, coated denatured rPrP 1 ng/assay
[5] = biological target: Sheep recombinant PrP (sheep); test: direct ELISA, coated denatured rPrP 1 ng/assay
[6] = biological target: Bovine recombinant PrP (bovine); test: direct ELISA, coated denatured rPrP 0.1 ng/assay
[7] = biological target: Deer recombinant PrP (deer); test: direct ELISA, coated denatured rPrP 0.1 ng/assay
[8] = biological target: Human recombinant PrP (human); test: direct ELISA, coated denatured rPrP 0.1 ng/assay
[9] = biological target: Mouse recombinant PrP (mouse); test: direct ELISA, coated denatured rPrP 0.1 ng/assay
[10] = biological target: Sheep recombinant PrP (sheep); test: direct ELISA, coated denatured rPrP 0.1 ng/assay
[11] = biological target: Mouse BH PrP^Sc (mouse); test: direct ELISA, coated denatured mouse BH PrP^Sc 1 mg BH/assay
[12] = biological target: Mouse BH PrP^Sc (mouse); test: direct ELISA, coated denatured mouse BH PrP^Sc 0.1 mg BH/assay

HuM D13 (antibody)
RLU [1]: 93.1 RLU
RLU [2]: 130 RLU
RLU [3]: 69.9 RLU
RLU [4]: 294 RLU
RLU [5]: 161 RLU
RLU [6]: 75.1 RLU
RLU [7]: 232 RLU
RLU [8]: 89.5 RLU
RLU [9]: 117 RLU
RLU [10]: 179 RLU
RLU [11]: 664 RLU
RLU [12]: 239 RLU

HuM D18 (antibody)
RLU [1]: 132 RLU
RLU [2]: 121 RLU
RLU [3]: 94.7 RLU
RLU [4]: 1770 RLU
RLU [5]: 186 RLU
RLU [6]: 109 RLU
RLU [7]: 134 RLU
RLU [8]: 77.5 RLU
RLU [9]: 366 RLU
RLU [10]: 169 RLU
RLU [11]: 2230 RLU
RLU [12]: 376 RLU

Mouse anti Prion (MAB5424) (antibody)
RLU [1]: 827 RLU
RLU [2]: 118 RLU
RLU [3]: 67.6 RLU
RLU [4]: 605 RLU
RLU [5]: 899 RLU
RLU [6]: 84.6 RLU
RLU [7]: 104 RLU
RLU [8]: 76.1 RLU
RLU [9]: 90.1 RLU
RLU [10]: 214 RLU
RLU [11]: 601 RLU
RLU [12]: 167 RLU

Mouse anti Prion (SAF-32) (antibody)
RLU [1]: 2400 RLU
RLU [2]: 2320 RLU
RLU [3]: 1570 RLU
RLU [4]: 73.3 RLU
RLU [5]: 1440 RLU
RLU [6]: 450 RLU
RLU [7]: 457 RLU
RLU [8]: 285 RLU
RLU [9]: 97.6 RLU
RLU [10]: 294 RLU
RLU [11]: 551 RLU
RLU [12]: 176 RLU

Mouse anti Prion (SAF-53) (antibody)
RLU [1]: 145 RLU
RLU [2]: 263 RLU
RLU [3]: 93.5 RLU
RLU [4]: 612 RLU
RLU [5]: 154 RLU
RLU [6]: 76.6 RLU
RLU [7]: 144 RLU
RLU [8]: 85.2 RLU
RLU [9]: 70.8 RLU
RLU [10]: 100 RLU
RLU [11]: 667 RLU
RLU [12]: 165 RLU

Mouse anti Prion (SAF-61) (antibody)
RLU [1]: 136 RLU
RLU [2]: 190 RLU
RLU [3]: 101 RLU
RLU [4]: 464 RLU
RLU [5]: 113 RLU
RLU [6]: 67.6 RLU
RLU [7]: 150 RLU
RLU [8]: 90.4 RLU
RLU [9]: 142 RLU
RLU [10]: 115 RLU
RLU [11]: 579 RLU
RLU [12]: 169 RLU
